Data set [1] concerns HeLa Kyoto. The data set can be described thus: solubility in G1/S (NP-40 vs SDS abundance) (log2 ratio); higher = more soluble. Conditions: cell cycle stage: G1/S.
Data set [2] deals with HeLa Kyoto. In words: solubility change mitosis vs G1/S (difference of NP-40 vs SDS log2 ratios) (log2 ratio difference); higher = more soluble in mitosis.
The subject of data set [3] is HeLa Kyoto. The data set can be described thus: thermal stability score vs G1/S (z-score of summed log2 fold changes over temperatures); higher = more thermally stable than in G1/S.
For data set [4], the system named is HeLa Kyoto. In words: melting temperature (median over replicates), in situ; higher = more thermally stable.
[5] abbreviates: cell cycle stage: early G1 (4.5 h after nocodazole release).
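Wherever melting temperature (median over replicates), in situ is given: HeLa Kyoto cells synchronized by double thymidine or nocodazole block, proteins quantified by TMT10plex mass spectrometry, three independent biological replicates.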
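Wherever solubility change mitosis vs G1/S (difference of NP-40 vs SDS log2 ratios) is given: synchronized HeLa Kyoto cells (double thymidine block for G1/S, nocodazole release for mitosis), protein amounts in NP-40 versus SDS lysates quantified by mass spectrometry, three biological replicates.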
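Wherever solubility in G1/S (NP-40 vs SDS abundance) is given: HeLa Kyoto cells arrested at G1/S by double thymidine block, proteins quantified by TMT10plex mass spectrometry in mild NP-40 versus SDS extracts, three biological replicates.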
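Wherever thermal stability score vs G1/S (z-score of summed log2 fold changes over temperatures) is given: synchronized HeLa Kyoto cells, proteins quantified by TMT10plex mass spectrometry, three biological replicates, mitosis taken 0.5 h after nocodazole release, G1/S directly after double thymidine block.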

For the sequence “MAAQSSLYNDDRNLLRIREKERRNQEAHQEKEAFPEKIPLFGEPYKTAKGDELSSRIQNMLGNYEEVKEFLSTKSHTHRLDASENRLGKPKYPLIPDKGSSIPSSSFHTSVHHQSIHTPASGPLSVGNISHNPKMAQPRTEPMPSLHAKSCGPPDSQHLTQDRLGQEGFGSSHHKKGDRRADGDHCASVTDSAPERELSPLISLPSPVPPLSPIHSNQQTLPRTQGSSKVHGSSNNSKGYCPAKSPKDLAVKVHDKETPQDSLVAPAQPPSQTFPPPSLPSKSVAMQQKPTAYVRPMDGQDQAPSESPELKPLPEDYRQQTFEKTDLKVPAKAKLTKLKMPSQSVEQTYSNEVHCVEEILKEMTHSWPPPLTAIHTPSTAEPSKFPFPTKDSQHVSSVTQNQKQYDTSSKTHSNSQQGTSSMLEDDLQLSDSEDSDSEQTPEKPPSSSAPPSAPQSLPEPVASAHSSSAESESTSDSDSSSDSESESSSSDSEENEPLETPAPEPEPPTTNKWQLDNWLTKVSQPAAPPEGPRSTEPPRRHPESKGSSDSATSQEHSESKDPPPKSSSKAPRAPPEAPHPGKRSCQKSPAQQEPPQRQTVGTKQPKKPVKASARAGSRTSLQGEREPGLLPYGSRDQTSKDKPKVKTKGRPRAAASNEPKPAVPPSSEKKKHKSSLPAPSKALSGPEPAKDNVEDRTPEHFALVPLTESQGPPHSGSGSRTSGCRQAVVVQEDSRKDRLPLPLRDTKLLSPLRDTPPPQSLMVKITLDLLSRIPQPPGKGSRQRKAEDKQPPAGKKHSSEKRSSDSSSKLAKKRKGEAERDCDNKKIRLEKEIKSQSSSSSSSHKESSKTKPSRPSSQSSKKEMLPPPPVSSSSQKPAKPALKRSRREADTCGQDPPKSASSTKSNHKDSSIPKQRRVEGKGSRSSSEHKGSSGDTANPFPVPSLPNGNSKPGKPQVKFDKQQADLHMREAKKMKQKAELMTDRVGKAFKYLEAVLSFIECGIATESESQSSKSAYSVYSETVDLIKFIMSLKSFSDATAPTQEKIFAVLCMRCQSILNMAMFRCKKDIAIKYSRTLNKHFESSSKVAQAPSPCIASTGTPSPLSPMPSPASSVGSQSSAGSVGSSGVAATISTPVTIQNMTSSYVTITSHVLTAFDLWEQAEALTRKNKEFFARLSTNVCTLALNSSLVDLVHYTRQGFQQLQELTKTP [AFF1]”, in the data set with HeLa Kyoto [1], the “solubility in G1/S (log2)” value is -0.222. The “solubility change mitosis (log2)” value in the data set on HeLa Kyoto [2] turned out to be 0.121. The results for the thermal stability score with HeLa Kyoto [3] (setting [5]) and in the data set on HeLa Kyoto [3] (cell cycle stage: mitosis) were 0.0483 and -0.483, respectively. Further, the melting temperature in the data set with HeLa Kyoto [4] (cell cycle stage: G1/S) came to 49.6 °C; with HeLa Kyoto [4] (cell cycle stage: mitosis), 51.8 °C.

Regarding “MAARVLRARGAAWAGGLLQRAAPCSLLPRLRTWTSSSNRSREDSWLKSLFVRKVDPRKDAHSNLLAKKETSNLYKLQFHNVKPECLEAYNKICQEVLPKIHEDKHYPCTLVGTWNTWYGEQDQAVHLWRYEGGYPALTEVMNKLRENKEFLEFRKARSDMLLSRKNQLLLEFSFWNEPVPRSGPNIYELRSYQLRPGTMIEWGNYWARAIRFRQDGNEAVGGFFSQIGQLYMVHHLWAYRDLQTREDIRNAAWHKHGWEELVYYTVPLIQEMESRIMIPLKTSPLQ [GBAS]”, the “solubility in G1/S (log2)” value in the data set with HeLa Kyoto [1] stood at 0.0162. Besides, the “solubility change mitosis (log2)” value in the data set on HeLa Kyoto [2] is -0.0463. In addition, the figures for the thermal stability score in the data set on HeLa Kyoto [3] (setting [5]) and with HeLa Kyoto [3] (cell cycle stage: mitosis) were -0.626 and -0.959, respectively. For the same sequence, the melting temperature in the data set with HeLa Kyoto [4] (cell cycle stage: G1/S) came out at 53.7 °C; in the data set with HeLa Kyoto [4] (cell cycle stage: mitosis), 53.3 °C.

Take “MAASASAAAGEEDWVLPSEVEVLESIYLDELQVIKGNGRTSPWEIYITLHPATAEDQDSQYVCFTLVLQVPAEYPHEVPQISIRNPRGLSDEQIHTILQVLGHVAKAGLGTAMLYELIEKGKEILTDNNIPHGQCVICLYGFQEKEAFTKTPCYHYFHCHCLARYIQHMEQELKAQGQEQEQERQHATTKQKAVGVQCPVCREPLVYDLASLKAAPEPQQPMELYQPSAESLRQQEERKRLYQRQQERGGIIDLEAERNRYFISLQQPPAPAEPESAVDVSKGSQPPSTLAAELSTSPAVQSTLPPPLPVATQHICEKIPGTRSNQQRLGETQKAMLDPPKPSRGPWRQPERRHPKGGECHAPKGTRDTQELPPPEGPLKEPMDLKPEPHSQGVEGPPQEKGPGSWQGPPPRRTRDCVRWERSKGRTPGSSYPRLPRGQGAYRPGTRRESLGLESKDGS [RNF25]”: the “solubility in G1/S (log2)” value in the data set on HeLa Kyoto [1] was found to be 0.537. Further, the “solubility change mitosis (log2)” value with HeLa Kyoto [2] worked out at 0.00785. Further, the thermal stability score was -0.22 in the data set on HeLa Kyoto [3] (setting [5]) and -0.474 with HeLa Kyoto [3] (cell cycle stage: mitosis). For the same sequence, the melting temperature in the data set on HeLa Kyoto [4] (cell cycle stage: G1/S) and with HeLa Kyoto [4] (cell cycle stage: mitosis) was 52.7 °C in each case.

Consider “MAASCVLLHTGQKMPLIGLGTWKSEPGQVKAAVKYALSVGYRHIDCAAIYGNEPEIGEALKEDVGPGKAVPREELFVTSKLWNTKHHPEDVEPALRKTLADLQLEYLDLYLMHWPYAFERGDNPFPKNADGTICYDSTHYKETWKALEALVAKGLVQALGLSNFNSRQIDDILSVASVRPAVLQVECHPYLAQNELIAHCQARGLEVTAYSPLGSSDRAWRDPDEPVLLEEPVVLALAEKYGRSPAQILLRWQVQRKVICIPKSITPSRILQNIKVFDFTFSPEEMKQLNALNKNWRYIVPMLTVDGKRVPRDAGHPLYPFNDPY [AKR1A1]”, for which the “solubility in G1/S (log2)” value in the data set with HeLa Kyoto [1] is 0.534. Besides, in the data set on HeLa Kyoto [2], the “solubility change mitosis (log2)” value is -0.00767. Also, the thermal stability score in the data set with HeLa Kyoto [3] (setting [5]) was -0.223; with HeLa Kyoto [3] (cell cycle stage: mitosis) it was -1.09. For the same sequence, the melting temperature with HeLa Kyoto [4] (cell cycle stage: G1/S) came out at 52.1 °C; with HeLa Kyoto [4] (cell cycle stage: mitosis), 52.7 °C.

For “MAASEAAVVSSPSLKTDTSPVLETAGTVAAMAATPSARAAAAVVAAAARTGSEARVSKAALATKLLSLSGVFAVHKPKGPTSAELLNRLKEKLLAEAGMPSPEWTKRKKQTLKIGHGGTLDSAARGVLVVGIGSGTKMLTSMLSGSKRYTAIGELGKATDTLDSTGRVTEEKPYDKITQEDIEGILQKFTGNIMQVPPLYSALKKDGQRLSTLMKRGEVVEAKPARPVTVYSISLQKFQPPFFTLDVECGGGFYIRSLVSDIGKELSSCANVLELTRTKQGPFTLEEHALPEDKWTIDDIAQSLEHCSSLFPAELALKKSKPESNEQVLSCEYITLNEPKREDDVIKTC [TRUB1]”, in the data set with HeLa Kyoto [1], the “solubility in G1/S (log2)” value came out at 0.549. Further, the “solubility change mitosis (log2)” value in the data set on HeLa Kyoto [2] is -0.0378. Besides, the thermal stability score turned out to be 1.48 in the data set with HeLa Kyoto [3] (setting [5]) and 1.46 with HeLa Kyoto [3] (cell cycle stage: mitosis). Further, the melting temperature in the data set on HeLa Kyoto [4] (cell cycle stage: G1/S) and with HeLa Kyoto [4] (cell cycle stage: mitosis) was 50.2 °C in each case.

As for “MAASEVAGVVANAPSPPESSSLCASKSDEGLPDGLSTKDSAQKQKNSPLLSVSSQTITKENNRNVHLEHSEQNPGSSAGDTSAAHQVVLGENLIATALCLSGSGSQSDLKDVASTAGEEGDTSLRESLHPVTRSLKAGCHTKQLASRNCSEEKSPQTSILKEGNRDTSLDFRPVVSPANGVEGVRVDQDDDQDSSSLKLSQNIAVQTDFKTADSEVNTDQDIEKNLDKMMTERTLLKERYQEVLDKQRQVENQLQVQLKQLQQRREEEMKNHQEILKAIQDVTIKREETKKKIEKEKKEFLQKEQDLKAEIEKLCEKGRREVWEMELDRLKNQDGEINRNIMEETERAWKAEILSLESRKELLVLKLEEAEKEAELHLTYLKSTPPTLETVRSKQEWETRLNGVRIMKKNVRDQFNSHIQLVRNGAKLSSLPQIPTPTLPPPPSETDFMLQVFQPSPSLAPRMPFSIGQVTMPMVMPSADPRSLSFPILNPALSQPSQPSSPLPGSHGRNSPGLGSLVSPHGPHMPPAASIPPPPGLGGVKASAETPRPQPVDKLEKILEKLLTRFPQCNKAQMTNILQQIKTARTTMAGLTMEELIQLVAARLAEHERVAASTQPLGRIRALFPAPLAQISTPMFLPSAQVSYPGRSSHAPATCKLCLMCQKLVQPSELHPMACTHVLHKECIKFWAQTNTNDTCPFCPTLK [RNF214]”, the “solubility in G1/S (log2)” value in the data set with HeLa Kyoto [1] came out at 0.486. The “solubility change mitosis (log2)” value with HeLa Kyoto [2] is -0.0773. For the same sequence, the results for the thermal stability score in the data set on HeLa Kyoto [3] (setting [5]) and with HeLa Kyoto [3] (cell cycle stage: mitosis) were -0.221 and -0.95, respectively. For the same sequence, the melting temperature with HeLa Kyoto [4] (cell cycle stage: G1/S) came to 49.8 °C; in the data set on HeLa Kyoto [4] (cell cycle stage: mitosis), 51.5 °C.

Source of the values: the supplement of paper PMC5998384.
